# Results as given in patent publication US20200317768A1 (published 2020).
# B1: MS_M103205H795-SG1/M103202L889-SK1 (antibody, human IgG1, kappa)
# heavy: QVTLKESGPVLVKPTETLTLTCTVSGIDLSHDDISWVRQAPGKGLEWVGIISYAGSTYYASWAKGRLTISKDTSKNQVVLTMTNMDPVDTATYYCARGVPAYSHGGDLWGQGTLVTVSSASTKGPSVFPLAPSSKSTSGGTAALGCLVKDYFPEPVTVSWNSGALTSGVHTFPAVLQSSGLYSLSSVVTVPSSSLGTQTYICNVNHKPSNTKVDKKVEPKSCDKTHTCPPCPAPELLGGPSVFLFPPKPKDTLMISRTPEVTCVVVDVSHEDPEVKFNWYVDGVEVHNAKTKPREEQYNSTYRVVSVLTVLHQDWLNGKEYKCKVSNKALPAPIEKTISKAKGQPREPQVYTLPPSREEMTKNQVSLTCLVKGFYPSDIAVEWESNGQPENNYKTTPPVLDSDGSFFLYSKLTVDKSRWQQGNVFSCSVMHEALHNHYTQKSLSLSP
# light: DIVMTQSPATLSLSPGERATLSCTSSQSVYHANWLSWFQQKPGQPPKLLIYWASTLAYGVPSRFSGSGSGTDFTLTISSLQPEDAATYYCAGGYGGGRYAFGQGTKVEIKRTVAAPSVFIFPPSDEQLKSGTASVVCLLNNFYPREAKVQWKVDNALQSGNSQESVTEQDSKDSTYSLSSTLTLSKADYEKHKVYACEVTHQGLSSPVTKSFNRGEC
# notes: Parent antibody of the Fc variants; heavy chain constant region SG1, light chain M103202L889-SK1; also called MS1032LO06-SG1
# B2: M103205H795-MY041/M103202L889-SK1 (antibody, human IgG1, kappa)
# heavy: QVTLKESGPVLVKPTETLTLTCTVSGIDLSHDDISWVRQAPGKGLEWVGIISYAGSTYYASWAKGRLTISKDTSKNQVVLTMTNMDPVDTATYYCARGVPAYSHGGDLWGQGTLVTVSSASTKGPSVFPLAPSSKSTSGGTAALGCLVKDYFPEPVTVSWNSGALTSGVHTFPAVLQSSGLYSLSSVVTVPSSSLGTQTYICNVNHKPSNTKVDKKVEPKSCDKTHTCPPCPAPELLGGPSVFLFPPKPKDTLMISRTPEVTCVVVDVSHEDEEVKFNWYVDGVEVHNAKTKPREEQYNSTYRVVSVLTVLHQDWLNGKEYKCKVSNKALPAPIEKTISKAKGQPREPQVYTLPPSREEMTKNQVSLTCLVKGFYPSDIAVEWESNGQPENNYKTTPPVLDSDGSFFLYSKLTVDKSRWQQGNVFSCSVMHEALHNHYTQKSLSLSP
# light: DIVMTQSPATLSLSPGERATLSCTSSQSVYHANWLSWFQQKPGQPPKLLIYWASTLAYGVPSRFSGSGSGTDFTLTISSLQPEDAATYYCAGGYGGGRYAFGQGTKVEIKRTVAAPSVFIFPPSDEQLKSGTASVVCLLNNFYPREAKVQWKVDNALQSGNSQESVTEQDSKDSTYSLSSTLTLSKADYEKHKVYACEVTHQGLSSPVTKSFNRGEC
# notes: Substitution put into M103205H795-SG1
# B3: M103205H795-MY016/M103202L889-SK1 (antibody, human IgG1, kappa)
# heavy: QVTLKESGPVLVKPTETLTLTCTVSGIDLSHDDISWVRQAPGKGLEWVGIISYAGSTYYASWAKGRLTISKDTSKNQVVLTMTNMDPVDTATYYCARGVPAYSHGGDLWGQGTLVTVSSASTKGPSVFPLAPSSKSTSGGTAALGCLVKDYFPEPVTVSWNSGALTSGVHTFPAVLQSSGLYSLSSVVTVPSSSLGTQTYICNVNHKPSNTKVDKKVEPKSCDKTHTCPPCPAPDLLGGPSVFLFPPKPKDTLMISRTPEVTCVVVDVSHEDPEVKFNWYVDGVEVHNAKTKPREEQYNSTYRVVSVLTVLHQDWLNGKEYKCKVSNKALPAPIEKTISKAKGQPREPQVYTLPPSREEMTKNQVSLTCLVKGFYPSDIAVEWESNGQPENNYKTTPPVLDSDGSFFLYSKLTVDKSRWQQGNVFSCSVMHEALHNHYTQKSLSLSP
# light: DIVMTQSPATLSLSPGERATLSCTSSQSVYHANWLSWFQQKPGQPPKLLIYWASTLAYGVPSRFSGSGSGTDFTLTISSLQPEDAATYYCAGGYGGGRYAFGQGTKVEIKRTVAAPSVFIFPPSDEQLKSGTASVVCLLNNFYPREAKVQWKVDNALQSGNSQESVTEQDSKDSTYSLSSTLTLSKADYEKHKVYACEVTHQGLSSPVTKSFNRGEC
# notes: as for B2
# B4: M103205H795-MY037/M103202L889-SK1 (antibody, human IgG1, kappa)
# heavy: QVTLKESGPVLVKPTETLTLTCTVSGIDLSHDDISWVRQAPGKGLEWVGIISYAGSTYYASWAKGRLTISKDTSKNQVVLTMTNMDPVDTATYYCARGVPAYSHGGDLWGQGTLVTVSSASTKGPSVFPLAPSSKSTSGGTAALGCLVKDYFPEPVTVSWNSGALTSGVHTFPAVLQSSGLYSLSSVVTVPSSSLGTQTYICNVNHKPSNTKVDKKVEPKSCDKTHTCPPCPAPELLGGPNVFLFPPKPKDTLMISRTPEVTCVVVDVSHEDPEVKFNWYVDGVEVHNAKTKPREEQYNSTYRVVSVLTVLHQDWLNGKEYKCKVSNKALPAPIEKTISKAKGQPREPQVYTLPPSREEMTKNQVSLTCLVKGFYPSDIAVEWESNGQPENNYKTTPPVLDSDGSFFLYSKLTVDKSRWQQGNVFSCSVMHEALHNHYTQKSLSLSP
# light: DIVMTQSPATLSLSPGERATLSCTSSQSVYHANWLSWFQQKPGQPPKLLIYWASTLAYGVPSRFSGSGSGTDFTLTISSLQPEDAATYYCAGGYGGGRYAFGQGTKVEIKRTVAAPSVFIFPPSDEQLKSGTASVVCLLNNFYPREAKVQWKVDNALQSGNSQESVTEQDSKDSTYSLSSTLTLSKADYEKHKVYACEVTHQGLSSPVTKSFNRGEC
# notes: as for B2
# B5: M103205H795-MY014/M103202L889-SK1 (antibody, human IgG1, kappa)
# heavy: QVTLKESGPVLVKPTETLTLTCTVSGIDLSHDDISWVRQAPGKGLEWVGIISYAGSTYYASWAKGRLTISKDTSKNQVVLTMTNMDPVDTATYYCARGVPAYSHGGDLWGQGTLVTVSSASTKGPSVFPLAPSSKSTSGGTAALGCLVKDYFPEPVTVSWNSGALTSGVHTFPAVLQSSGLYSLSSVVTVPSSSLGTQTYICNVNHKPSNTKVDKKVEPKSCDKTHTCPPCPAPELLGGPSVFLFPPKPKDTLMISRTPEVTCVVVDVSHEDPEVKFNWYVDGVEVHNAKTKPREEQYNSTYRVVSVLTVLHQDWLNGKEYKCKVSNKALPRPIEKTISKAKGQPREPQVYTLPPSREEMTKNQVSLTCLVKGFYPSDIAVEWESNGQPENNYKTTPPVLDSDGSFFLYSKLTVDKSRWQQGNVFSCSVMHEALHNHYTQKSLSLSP
# light: DIVMTQSPATLSLSPGERATLSCTSSQSVYHANWLSWFQQKPGQPPKLLIYWASTLAYGVPSRFSGSGSGTDFTLTISSLQPEDAATYYCAGGYGGGRYAFGQGTKVEIKRTVAAPSVFIFPPSDEQLKSGTASVVCLLNNFYPREAKVQWKVDNALQSGNSQESVTEQDSKDSTYSLSSTLTLSKADYEKHKVYACEVTHQGLSSPVTKSFNRGEC
# notes: as for B2
# B6: M103205H795-MY010/M103202L889-SK1 (antibody, human IgG1, kappa)
# heavy: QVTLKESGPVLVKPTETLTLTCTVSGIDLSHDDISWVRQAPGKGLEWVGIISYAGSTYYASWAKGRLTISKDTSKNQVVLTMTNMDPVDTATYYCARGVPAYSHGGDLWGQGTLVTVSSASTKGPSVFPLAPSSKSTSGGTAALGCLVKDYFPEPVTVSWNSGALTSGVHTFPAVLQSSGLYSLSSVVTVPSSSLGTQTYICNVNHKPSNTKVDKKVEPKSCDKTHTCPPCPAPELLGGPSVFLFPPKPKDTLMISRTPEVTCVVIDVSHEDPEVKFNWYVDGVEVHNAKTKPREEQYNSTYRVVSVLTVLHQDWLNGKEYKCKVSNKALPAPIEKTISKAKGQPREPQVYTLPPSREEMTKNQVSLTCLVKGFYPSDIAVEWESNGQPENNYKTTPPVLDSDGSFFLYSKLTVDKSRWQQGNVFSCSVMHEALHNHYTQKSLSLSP
# light: DIVMTQSPATLSLSPGERATLSCTSSQSVYHANWLSWFQQKPGQPPKLLIYWASTLAYGVPSRFSGSGSGTDFTLTISSLQPEDAATYYCAGGYGGGRYAFGQGTKVEIKRTVAAPSVFIFPPSDEQLKSGTASVVCLLNNFYPREAKVQWKVDNALQSGNSQESVTEQDSKDSTYSLSSTLTLSKADYEKHKVYACEVTHQGLSSPVTKSFNRGEC
# notes: as for B2
# B7: M103205H795-MY013/M103202L889-SK1 (antibody, human IgG1, kappa)
# heavy: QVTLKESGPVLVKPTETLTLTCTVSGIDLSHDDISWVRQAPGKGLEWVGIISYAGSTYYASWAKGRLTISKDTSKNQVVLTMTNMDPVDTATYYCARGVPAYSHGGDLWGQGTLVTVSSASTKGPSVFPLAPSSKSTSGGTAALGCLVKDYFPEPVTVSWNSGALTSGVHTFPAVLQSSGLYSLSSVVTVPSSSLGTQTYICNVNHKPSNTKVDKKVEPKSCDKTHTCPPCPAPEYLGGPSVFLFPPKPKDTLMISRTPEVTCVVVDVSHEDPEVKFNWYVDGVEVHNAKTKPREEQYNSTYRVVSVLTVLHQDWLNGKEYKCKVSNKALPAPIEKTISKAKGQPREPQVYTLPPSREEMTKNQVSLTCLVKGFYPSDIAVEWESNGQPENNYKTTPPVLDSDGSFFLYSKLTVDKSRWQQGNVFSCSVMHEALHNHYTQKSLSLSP
# light: DIVMTQSPATLSLSPGERATLSCTSSQSVYHANWLSWFQQKPGQPPKLLIYWASTLAYGVPSRFSGSGSGTDFTLTISSLQPEDAATYYCAGGYGGGRYAFGQGTKVEIKRTVAAPSVFIFPPSDEQLKSGTASVVCLLNNFYPREAKVQWKVDNALQSGNSQESVTEQDSKDSTYSLSSTLTLSKADYEKHKVYACEVTHQGLSSPVTKSFNRGEC
# notes: as for B2
# B8: M103205H795-MY038/M103202L889-SK1 (antibody, human IgG1, kappa)
# heavy: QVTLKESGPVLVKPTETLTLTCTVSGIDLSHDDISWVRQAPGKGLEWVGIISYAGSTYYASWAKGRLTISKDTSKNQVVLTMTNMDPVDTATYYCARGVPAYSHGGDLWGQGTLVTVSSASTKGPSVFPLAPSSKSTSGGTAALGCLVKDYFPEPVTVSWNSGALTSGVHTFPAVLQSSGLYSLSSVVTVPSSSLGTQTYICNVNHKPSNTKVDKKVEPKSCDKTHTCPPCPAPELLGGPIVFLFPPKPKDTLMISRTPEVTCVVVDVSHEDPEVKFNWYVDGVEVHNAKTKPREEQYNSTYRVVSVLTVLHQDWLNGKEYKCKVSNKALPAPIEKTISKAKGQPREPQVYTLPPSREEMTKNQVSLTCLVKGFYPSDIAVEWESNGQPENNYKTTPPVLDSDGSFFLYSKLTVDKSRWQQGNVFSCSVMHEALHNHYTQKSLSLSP
# light: DIVMTQSPATLSLSPGERATLSCTSSQSVYHANWLSWFQQKPGQPPKLLIYWASTLAYGVPSRFSGSGSGTDFTLTISSLQPEDAATYYCAGGYGGGRYAFGQGTKVEIKRTVAAPSVFIFPPSDEQLKSGTASVVCLLNNFYPREAKVQWKVDNALQSGNSQESVTEQDSKDSTYSLSSTLTLSKADYEKHKVYACEVTHQGLSSPVTKSFNRGEC
# notes: as for B2
# B9: M103205H795-MY008/M103202L889-SK1 (antibody, human IgG1, kappa)
# heavy: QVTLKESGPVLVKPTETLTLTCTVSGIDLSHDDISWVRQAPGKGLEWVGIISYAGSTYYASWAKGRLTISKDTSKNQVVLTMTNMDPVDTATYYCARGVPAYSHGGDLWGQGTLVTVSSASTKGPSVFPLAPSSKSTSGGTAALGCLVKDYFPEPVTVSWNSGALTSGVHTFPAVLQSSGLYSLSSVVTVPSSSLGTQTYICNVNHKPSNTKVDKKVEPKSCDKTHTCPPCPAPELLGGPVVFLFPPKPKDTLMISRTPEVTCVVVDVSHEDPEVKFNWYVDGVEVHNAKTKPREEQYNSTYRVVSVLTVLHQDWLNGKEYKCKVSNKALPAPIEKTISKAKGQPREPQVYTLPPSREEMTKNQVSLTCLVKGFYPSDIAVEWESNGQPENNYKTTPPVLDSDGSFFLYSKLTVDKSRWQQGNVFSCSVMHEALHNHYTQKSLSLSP
# light: DIVMTQSPATLSLSPGERATLSCTSSQSVYHANWLSWFQQKPGQPPKLLIYWASTLAYGVPSRFSGSGSGTDFTLTISSLQPEDAATYYCAGGYGGGRYAFGQGTKVEIKRTVAAPSVFIFPPSDEQLKSGTASVVCLLNNFYPREAKVQWKVDNALQSGNSQESVTEQDSKDSTYSLSSTLTLSKADYEKHKVYACEVTHQGLSSPVTKSFNRGEC
# notes: as for B2
# B10: M103205H795-MY006/M103202L889-SK1 (antibody, human IgG1, kappa)
# heavy: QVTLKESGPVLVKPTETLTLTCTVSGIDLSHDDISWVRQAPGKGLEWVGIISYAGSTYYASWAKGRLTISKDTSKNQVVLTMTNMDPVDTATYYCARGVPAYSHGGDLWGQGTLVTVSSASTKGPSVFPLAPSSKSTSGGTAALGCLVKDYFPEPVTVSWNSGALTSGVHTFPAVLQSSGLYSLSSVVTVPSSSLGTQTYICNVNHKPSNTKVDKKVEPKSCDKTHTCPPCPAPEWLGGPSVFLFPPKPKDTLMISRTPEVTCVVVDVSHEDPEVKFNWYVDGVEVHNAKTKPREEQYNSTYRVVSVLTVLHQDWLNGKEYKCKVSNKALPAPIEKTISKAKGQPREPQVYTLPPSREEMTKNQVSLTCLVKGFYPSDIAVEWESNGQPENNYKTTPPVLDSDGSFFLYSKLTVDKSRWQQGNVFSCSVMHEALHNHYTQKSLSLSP
# light: DIVMTQSPATLSLSPGERATLSCTSSQSVYHANWLSWFQQKPGQPPKLLIYWASTLAYGVPSRFSGSGSGTDFTLTISSLQPEDAATYYCAGGYGGGRYAFGQGTKVEIKRTVAAPSVFIFPPSDEQLKSGTASVVCLLNNFYPREAKVQWKVDNALQSGNSQESVTEQDSKDSTYSLSSTLTLSKADYEKHKVYACEVTHQGLSSPVTKSFNRGEC
# notes: as for B2
# What was measured:
# Assay in all cases: SPR; KD of SG1 / KD of variant
# [1] = molecular target: T1, cynomolgus monkey FcγRIIa1 extracellular domain, His-tagged (cynomolgus monkey)
# T1 construct: also called cyno FcγRIIa1; cynoFcgRIIa1
# T1 chain: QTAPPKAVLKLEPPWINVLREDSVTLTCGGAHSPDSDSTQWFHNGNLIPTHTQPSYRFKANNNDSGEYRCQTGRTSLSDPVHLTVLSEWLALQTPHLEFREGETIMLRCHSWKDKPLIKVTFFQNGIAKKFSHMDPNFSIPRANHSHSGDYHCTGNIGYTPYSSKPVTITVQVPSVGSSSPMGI
# [2] = molecular target: T2, cynomolgus monkey FcγRIIa2 extracellular domain, His-tagged (cynomolgus monkey)
# T2 construct: also called cyno FcγRIIa2; cynoFcgRIIa2
# T2 chain: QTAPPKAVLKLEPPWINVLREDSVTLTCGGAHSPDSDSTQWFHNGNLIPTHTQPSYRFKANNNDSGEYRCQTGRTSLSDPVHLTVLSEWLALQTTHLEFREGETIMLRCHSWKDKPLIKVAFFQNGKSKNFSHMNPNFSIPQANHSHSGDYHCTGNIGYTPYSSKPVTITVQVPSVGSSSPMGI
# [3] = molecular target: T3, cynomolgus monkey FcγRIIa3 extracellular domain, His-tagged (cynomolgus monkey)
# T3 construct: also called cyno FcγRIIa3; cynoFcgRIIa3
# T3 chain: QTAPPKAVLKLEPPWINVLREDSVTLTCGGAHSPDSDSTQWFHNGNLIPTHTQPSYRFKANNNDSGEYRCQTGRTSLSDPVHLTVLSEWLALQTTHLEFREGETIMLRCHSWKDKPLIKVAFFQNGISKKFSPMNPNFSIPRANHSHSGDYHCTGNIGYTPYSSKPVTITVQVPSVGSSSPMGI
# [4] = molecular target: T4, cynomolgus monkey FcγRIIb extracellular domain, His-tagged (cynomolgus monkey)
# T4 construct: also called cyno FcγRIIb; cynoFcγRIIb
# T4 chain: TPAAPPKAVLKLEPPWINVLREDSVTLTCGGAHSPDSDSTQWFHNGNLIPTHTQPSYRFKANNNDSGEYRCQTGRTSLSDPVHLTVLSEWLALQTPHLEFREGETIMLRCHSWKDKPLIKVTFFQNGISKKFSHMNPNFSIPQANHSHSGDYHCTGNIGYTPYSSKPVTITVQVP
# [5] = molecular target: T5, cynomolgus monkey FcγRIIIaS extracellular domain, His-tagged (cynomolgus monkey, UniProt Q8SPW2 21-206 at identity 1.00))
# T5 construct: also called cyno FcγRIIIaS; cynoFcγRIIIaS
# T5 chain: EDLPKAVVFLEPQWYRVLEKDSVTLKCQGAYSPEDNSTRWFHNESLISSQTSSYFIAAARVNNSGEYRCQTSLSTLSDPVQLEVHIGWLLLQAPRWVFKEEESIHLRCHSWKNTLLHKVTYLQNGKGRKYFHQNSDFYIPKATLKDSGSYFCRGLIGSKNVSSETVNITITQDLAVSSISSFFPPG
# [6] = molecular target: T6, human FcγRIIaR extracellular domain, His-tagged (human, UniProt P12318 34-217)
# T6 construct: also called human FcγRIIa (type R); FcgRIIaR
# T6 chain: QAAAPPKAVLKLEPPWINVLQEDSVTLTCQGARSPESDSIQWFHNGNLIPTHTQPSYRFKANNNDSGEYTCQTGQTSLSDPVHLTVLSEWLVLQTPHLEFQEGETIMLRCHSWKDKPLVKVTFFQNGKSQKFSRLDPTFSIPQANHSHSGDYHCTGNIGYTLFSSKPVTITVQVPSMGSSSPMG
# [7] = molecular target: T7, human FcγRIIb extracellular domain, His-tagged (human, UniProt P31994 43-217)
# T7 construct: also called FcgRIIb (human)
# T7 sequence: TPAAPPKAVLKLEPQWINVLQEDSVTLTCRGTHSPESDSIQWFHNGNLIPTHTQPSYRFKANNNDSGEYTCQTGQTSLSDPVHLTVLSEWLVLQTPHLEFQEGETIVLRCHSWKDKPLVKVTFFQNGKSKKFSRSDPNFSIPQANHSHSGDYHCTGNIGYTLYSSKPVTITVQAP
# [8] = molecular target: T8, human FcγRIIIaV extracellular domain, His-tagged (human, UniProt P08637 17-208)
# T8 construct: also called FcgRIIIaV
# T8 sequence (P08637 17-208 F176V): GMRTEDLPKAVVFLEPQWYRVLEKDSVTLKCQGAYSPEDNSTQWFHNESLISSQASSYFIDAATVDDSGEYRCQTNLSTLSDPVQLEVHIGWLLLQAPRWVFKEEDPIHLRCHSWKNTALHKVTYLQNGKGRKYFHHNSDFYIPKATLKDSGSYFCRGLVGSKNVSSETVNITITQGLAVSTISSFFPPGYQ
Binder,KD fold (SG1 = 1) [1] [fold],KD fold (SG1 = 1) [2] [fold],KD fold (SG1 = 1) [3] [fold],KD fold (SG1 = 1) [4] [fold],KD fold (SG1 = 1) [5] [fold],KD fold (SG1 = 1) [6] [fold],KD fold (SG1 = 1) [7] [fold],KD fold (SG1 = 1) [8] [fold]
B1,1,1,1,1,1,1,1,1
B2,0.8,1.2,2.3,0.5,1.38,0.9,1.6,1.69
B3,1.1,1.5,5.3,1.1,1.57,1.2,1.6,2.15
B4,0.8,1.1,1.5,0.8,1.8,1.2,1.8,2.15
B5,1.3,2,1.4,1.2,0.9,1.1,1,1.17
B6,0.5,1,1.2,0.5,1.64,0.6,0.9,3.68
B7,0.7,1.1,0.3,0.9,1.09,0.2,1.2,1.98
B8,0.8,1.1,1.5,0.9,1.16,0.7,1.8,1.47
B9,0.8,1.4,0.7,1.1,0.97,0.6,1.8,1.29
B10,1.6,2.7,4.7,2,1.13,0.6,2,1.12
